Measurements taken from patent publication US20240358731A1, “SUMO PATHWAY AS AN OXYGEN SENSOR RELEVANT TO THE PATHOPHYSIOLOGY OF PULMONARY ARTERY HYPERTENSION AND CARDIAC ARRHYTHMIA” (Northeastern University, priority 2023, published 2024).
“And” between values parts separate entries of the source, which are not always exact repeats. Equal values may be shown once.

Experiments:
Assay type in all cases: cell-based
Kir2.4 [1] = target: T1, Kir2.4 (Homo sapiens, UniProt Q9UNX9); experiment: Whole-cell patch-clamp of Kir2.4 in HEK293 cells with SUMO1 or SENP1 in the recording pipette; parameters: expressed in transfected cells
T1 sequence (Q9UNX9 1-436): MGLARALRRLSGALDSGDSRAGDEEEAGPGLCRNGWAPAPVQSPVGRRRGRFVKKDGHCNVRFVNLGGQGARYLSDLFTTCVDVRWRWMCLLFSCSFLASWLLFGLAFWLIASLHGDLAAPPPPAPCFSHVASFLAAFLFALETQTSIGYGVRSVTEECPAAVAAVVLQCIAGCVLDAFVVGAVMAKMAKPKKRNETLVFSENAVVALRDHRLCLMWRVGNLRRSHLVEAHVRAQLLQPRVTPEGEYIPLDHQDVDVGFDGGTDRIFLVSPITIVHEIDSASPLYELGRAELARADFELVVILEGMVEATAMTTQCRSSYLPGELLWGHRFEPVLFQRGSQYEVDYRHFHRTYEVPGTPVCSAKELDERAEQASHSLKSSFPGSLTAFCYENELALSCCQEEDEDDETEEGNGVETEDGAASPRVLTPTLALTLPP
Procedure: Currents were measured at −80 mV in 140 mM external K+.
Similarly, currents were no longer enhanced by SENP1.
SUMOylation regulates Kir2.4 channels in mammalian cells. Next, we tested if SUMO could regulate Kir2.4 channels in mammalian cells. Kir2.4 channels were transiently expressed in HEK293 cells and studied in whole-cell mode with 140 mM bath [K]^+, using a ramp protocol from −80 to +80 mV. Purified SUMO1 or SENP1 peptide were introduced via the recording pipette. At 1 nM, SUMO1, but not heat-denatured SUMO1, inhibited Kir2.4 currents by ˜40 and 60%, respectively, within one-minute of breakthrough. In contrast, 1 nM SENP1 increased the current by ˜50% (FIG. 7).
The PIP2-dependence of SUMO-regulation. Using the 5-ptaseOCRL system, we depleted PIP2 in HEK293 cells expressing Kir2.4 and studied currents with 1 nM SUMO1, or SENP1 in the recording pipette. When currents were recorded after 5-min activation of the optogenetic probe, 5-ptaseOCRL, the inhibitory effect of 1 nM SUMO1 on Kir2.4 was reduced from ˜40% to ˜7% (FIG. 9). Current augmentation observed with SENP1 in the pipette was reduced from […] to ˜6%. These preliminary data support the conclusion that SUMO-regulation of Kir2.4 channels is PIP2-dependent.

Kir2.3 = target: T2, Kir2.3 (Homo sapiens, UniProt P48050); experiment: Two-electrode voltage-clamp of Kir2.3 currents in Xenopus oocytes; conditions: co-expression
T2 construct: expressed in transfected cells; host or cells: Xenopus oocytes
T2 sequence (P48050 1-445): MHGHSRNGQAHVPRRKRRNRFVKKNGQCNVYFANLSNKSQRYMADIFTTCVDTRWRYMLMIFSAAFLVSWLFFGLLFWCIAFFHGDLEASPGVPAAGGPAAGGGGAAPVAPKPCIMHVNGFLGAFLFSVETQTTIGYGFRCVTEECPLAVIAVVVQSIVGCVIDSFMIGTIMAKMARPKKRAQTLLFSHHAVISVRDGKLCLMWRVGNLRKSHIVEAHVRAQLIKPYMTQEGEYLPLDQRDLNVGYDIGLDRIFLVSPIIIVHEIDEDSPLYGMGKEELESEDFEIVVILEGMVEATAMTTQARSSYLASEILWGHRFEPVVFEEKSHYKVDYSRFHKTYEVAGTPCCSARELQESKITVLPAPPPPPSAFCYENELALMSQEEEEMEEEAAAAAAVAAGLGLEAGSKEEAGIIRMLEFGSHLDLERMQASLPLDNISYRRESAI
From the text: (§1) FIG. 5A discloses SEQ ID NOS 6-9, respectively, in order of appearance. […] SENP1 increases the current. […] SUMO sensitivity is transferred to Kir2.3 when the site in Kir2.1 is recreated by mutagenesis (Kir2.3-N25D).
(§2) Co-expressed SUMO decreases Kir2.4 currents in Xenopus oocytes. Using the SUMOplot algorithm to assess potential SUMOylation sites based on the canonical motif ψ-K-X-E/D, we identified the high probability SUMO site V-K54-K-D (SEQ ID NO: 4) in the N-terminal sequence of Kir2.4. SUMO covalently modifies Kir2.4 at K54 (FIG. 5) and tested the idea using two-electrode voltage-clamp (TEVC), a sensitive assay to study the regulation of Kir channels. Kir2.4 currents, assessed at −80 mV in a high K^+ (96 mM) bath solution, decreased in a dose-dependent manner with co-expression of SUMO1 (FIG. 5). Co-injection of 5 ng of human SUMO1 RNA decreased Kir2.4 currents by ˜50%. In contrast, expression of SENP1 increased Kir2.4 by ˜50%. […] The analogous sequence in Kir2.2 and Kir2.3 is V-K-K-N(SEQ ID NO: 5), which lacks the terminal aspartic acid, reduced the probability of SUMOylation from 0.93 to 0.31. Consistent with this, Kir2.3 currents were insensitive to SUMO1 and SENP1. […] This last result is consistent with a protein-protein interaction between the channel and SUMO1.

Kir2.4 [2] = target: T1, Kir2.4; experiment: Two-electrode voltage-clamp of Kir2.4 currents in Xenopus oocytes; parameters: expressed in transfected cells; host or cells: Xenopus oocytes (RNA injection); conditions: expression of SENP1
From the text: as §1, §2

SUMO1: purified SUMO1 (small ubiquitin-related modifier) protein introduced via the recording pipette or co-expressed
inhibition of Kir2.4 currents after PIP2 depletion (Kir2.4 [1]; 1 nM SUMO1, after 5-min activation of 5-ptaseOCRL): ~7%
inhibition of Kir2.4 currents (Kir2.4 [1]; 1 nM in pipette, 140 mM bath K+, within one-minute of breakthrough): ~40% and ~60%
sensitivity of Kir2.3 currents (Kir2.3): insensitive

B1: SENP1: purified deSUMOylating enzyme (SUMO specific protease) introduced via the recording pipette or expressed (protein, UniProt Q9P0U3 1-644, looked up)
Sentrin-specific protease 1: MDDIADRMRMDAGEVTLVNHNSVFKTHLLPQTGFPEDQLSLSDQQILSSRQGHLDRSFTCSTRSAAYNPSYYSDNPSSDSFLGSGDLRTFGQSANGQWRNSTPSSSSSLQKSRNSRSLYLETRKTSSGLSNSFAGKSNHHCHVSAYEKSFPIKPVPSPSWSGSCRRSLLSPKKTQRRHVSTAEETVQEEEREIYRQLLQMVTGKQFTIAKPTTHFPLHLSRCLSSSKNTLKDSLFKNGNSCASQIIGSDTSSSGSASILTNQEQLSHSVYSLSSYTPDVAFGSKDSGTLHHPHHHHSVPHQPDNLAASNTQSEGSDSVILLKVKDSQTPTPSSTFFQAELWIKELTSVYDSRARERLRQIEEQKALALQLQNQRLQEREHSVHDSVELHLRVPLEKEIPVTVVQETQKKGHKLTDSEDEFPEITEEMEKEIKNVFRNGNQDEVLSEAFRLTITRKDIQTLNHLNWLNDEIINFYMNMLMERSKEKGLPSVHAFNTFFFTKLKTAGYQAVKRWTKKVDVFSVDILLVPIHLGVHWCLAVVDFRKKNITYYDSMGGINNEACRILLQYLKQESIDKKRKEFDTNGWQLFSKKSQEIPQQMNGSDCGMFACKYADCITKDRPINFTQQHMPYFRKRMVWEILHRKLL
increase of Kir2.4 currents (Kir2.4 [2]): ~50%
increase of Kir2.4 current (Kir2.4 [1]; 1 nM SENP1 in pipette): ~50% and ~40%
Kir2.4 current augmentation after PIP2 depletion (Kir2.4 [1]; 1 nM SENP1 in pipette, after 5-min activation of 5-ptaseOCRL): ~6%
sensitivity of Kir2.3 currents (Kir2.3): insensitive
